Substitutions are numbered along the chain they refer to. Where “and” joins values, the source holds several entries; their conditions need not be identical. Equal entries are not always repeated. Non-standard residues stand in square brackets, D forms with d. No end group written: not given here. Hyp = O=C(O)[C@@H]1C[C@@H](O)CN1; Orn = NCCC[C@H](N)C(=O)O
Tests used:
Assay type in all cases: physicochemical
[1] = CD thermal denaturation (melting temperature of triple-helical assemblies); conditions: for Tm (° C.): Table 2, constructs that self-assemble
Protocol: All CD data were acquired with a 202SF or 420 CD spectrophotometer from Aviv Biomedical (Lakewood, N.J.) at the UW BIF. Samples were prepared at a concentration of 0.6 mg/mL (˜160 μM) in 10 mM sodium phosphate buffer, pH 7.0, both with and without NaCl (180 mM). CD spectra were recorded at 4° C. with a 1-nm band-pass in quartz cuvettes with a 0.1-cm pathlength, using an averaging time of 4 s. For thermal denaturation experiments the CD signal was monitored at 226 nm while the sample was heated at a rate of 12° C./h in 2- or 3-° C. steps. The melting transition is indicated by a minimum on the temperature derivative of the melting curve (∂[θ]/∂T), and values (±1° C.) of melting temperature (Tm) were determined assuming constant curvature in the immediate vicinity of the transition minimum.

[2] = Evidence for symmetric self-assembly (AUC/CD/DLS/TEM/AFM/Rheology); conditions: Table 3
Description: These peptides follow the following criteria for symmetric triple-helical self-assembly: • o. Peptides should embody the uninterrupted Xaa-Yaa-Gly tripeptide repeats of collagens • Peptides should be constructed to allow the formation of a polyproline-II helix. For this, their sequence should have a Gly at every third position. In addition, Pro residues should be favored at Xaa positions and Pro or Hyp residues at Yaa positions. Resulting peptides are collagen-mimetic peptides (CMPs). • i. Repulsive interstrand interactions should be installed to prevent the formation of the blunt-ended homotrimeric state. • CMPs are prone to forming blunt-ended triple helices, in general. This state should be destabilized to enable CMPs to associate with sticky-ends. • ii. The number of tripeptide repeats, nT, that constitute the CMP cannot be evenly divisible by three. • Satisfaction of this criterion is essential to obtain identical strand-offsets in the assembled state. […] This offset is nT residues for a peptide with nT tripeptide repeats. […] Thus, it is necessary to introduce attractive interstrand interactions to CMP designs that stabilize triple-helix formation only when they associate with nT-residue offsets.

[3] = Negative-stained (dry) TEM imaging of peptide assemblies; conditions: for Feature dimensions (nm), nanofiber diameter by TEM: dried, negative-stained, mean±SD
Protocol: (§1) All imaging was performed with a Tecnai TF-30 TEM instrument (300 kV) from FEI (Hillsboro, Oreg.) at the UW Materials Science Center (MSC; msc.engr.wisc.edu). Samples were prepared on Quantifoil R1.2/1.3 holey-carbon mesh on copper grids. Sample preparation for dry TEM was carried out at 4° C. Samples were negative-stained using freshly prepared 2.0% w/w PTA solution adjusted to pH 6 with aqueous NaOH and filtered. The peptide solution was allowed to adhere to the carbon-mesh side of the grid for 1 min, at which point excess solution was blotted with filter paper, and the grid was allowed to dry for 5 min. Negative stain was applied for 10 min by inverting the grid on a drop of PTA solution. Excess stain was removed with filter paper, and the grid was allowed to dry overnight prior to imaging. For vitreous ice cryo-TEM imaging, a solution of OKD (0.3 mg/mL) was applied to a TEM grid, glow discharged for 0.5 min at 25 mA beforehand with a Pelco easiGlow unit from Ted Pella (Redding, Calif.). The grid was allowed to equilibrate at 5° C. at 95% humidity. A drop of peptide solution was added, and the grid was then blotted and immersed in liquid ethane on a Vitrobot from FEI. The grid was transferred from liquid ethane to liquid nitrogen manually, and was stored in liquid nitrogen until imaging. Acquisition was performed at −180° C. with low dose and long exposures.

[4] = Vitreous ice cryo-TEM imaging; conditions: 0.3 mg/mL, flash frozen in liquid ethane
Protocol: as §1

[5] = Tapping-mode atomic force microscopy on mica; conditions: annealed at 0.03 mg/mL, freshly cleaved mica
Protocol: Peptide samples were annealed at 0.03 mg/mL in 10 mM sodium phosphate buffer, pH 7.0, and applied onto freshly cleaved mica at 4° C. After 10 min, the solution of peptide was washed with cold water for 30 s, and excess water was removed with a filter paper. Samples were dried at 4° C. overnight prior to imaging. AFM images were collected in tapping mode with an Agilent 5500 SPM instrument using NCHV-A probes from Bruker (Billerica, Mass.). Data were analyzed with Gwyddion ver. 2.39 software (gwyddion.net).
Although the softness of the material led to artifacts and necessitated frequent use of fresh probes, the images clearly and consistently present the self-assembled OKD nanofibers.

[6] = Rheology of peptide hydrogels / hydrogel formation
Protocol: This solution is placed in an airtight container, heated to 65° C. in a large water bath and annealed down to room temperature, overnight. The resulting hydrogel is subjected to rheological analysis (FIG. 15a).
Rheology on peptide hydrogels was performed on a TA ARES rheometer at the Soft Materials Laboratory at the University of Wisconsin—Madison, using 8-mm stainless-steel parallel-plate geometry with a 1 mm gap size. Strain sweeps (0.01-200%) maintained a fixed frequency of 2 rad/s, while a fixed strain of 1% was applied for frequency sweeps (0.1-100 rad/s).

In the case of “POGPOGPCysGPKGPKGPKGPKGPOGPOGDOGDOGDOGDOGPOG (PXGPXGPCGPKGPKGPKGPKGPXGPXGDXGDXGDXGDXGPXG; hydroxyproline residues; MOD_RES (2)..(2) 4Hyp; MOD_RES (5)..(5) 4Hyp; MOD_RES (23)..(23) 4Hyp; MOD_RES (26)..(26) 4Hyp; MOD_RES (29)..(29) 4Hyp; MOD_RES (32)..(32) 4Hyp; MOD_RES (35)..(35) 4Hyp; MOD_RES (38)..(38) 4Hyp; MOD_RES (41)..(41) 4Hyp) [OKD2-C8]”, the “Tm (° C.)” value [1] is reported as 45 °C.

For “POGPOGPOGPOrGPOrGPOrGPOGPOGDOGDOGDO (P[Hyp]GP[Hyp]GP[Hyp]GP[Orn]GP[Orn]GP[Orn]GP[Hyp]GP[Hyp]GD[Hyp]GD[Hyp]GD[Hyp]) [Peptide 3sb-OOrD]”, the “Evidence (constructs that do not reliably self-assemble)” value [2] was “no structure”.

In the case of “POGPOGPOGPKGPKGPKGPOGPOGDOGDOGDOG (P[Hyp]GP[Hyp]GP[Hyp]GPKGPKGPKGP[Hyp]GP[Hyp]GD[Hyp]GD[Hyp]GD[Hyp]G) [Peptide 3sbG-OKD]”, the “Tm (° C.)” value [1] is reported as 33 °C.

In the case of “POGPOGPOGPOGPKGPKGPKGPKGPOGPOGDOGDOGDOGDOG (PXGPXGPXGPXGPKGPKGPKGPKGPXGPXGDXGDXGDXGDXG; hydroxyproline residues; MOD_RES (2)..(2) 4Hyp; MOD_RES (5)..(5) 4Hyp; MOD_RES (8)..(8) 4Hyp; MOD_RES (11)..(11) 4Hyp; MOD_RES (26)..(26) 4Hyp; MOD_RES (29)..(29) 4Hyp; MOD_RES (32)..(32) 4Hyp; MOD_RES (35)..(35) 4Hyp; MOD_RES (38)..(38) 4Hyp; MOD_RES (41)..(41) 4Hyp) [OKD]”, the “Tm (° C.) I = 20 mM” value ([1]; CD at 226 nm, 0.6 mg/mL, 10 mM sodium phosphate pH 7.0, low ionic strength I = 20 mM) is reported as 49 °C, the “Tm (° C.) I = 200 mM” value ([1]; CD at 226 nm, 0.6 mg/mL, 10 mM sodium phosphate pH 7.0 with 180 mM NaCl, I = 200 mM) is reported as 39 °C and the “Tm (° C.)” value [1] is reported as 49 °C. For the same molecule, the “length of triple-helical stretches” value ([3]; TEM) was at most 0.3 μm, the “Feature dimensions (nm), nanofiber diameter by TEM” value [3] was 2.3±0.4 nm and the “diameter of solvated nanofibers (cryo-TEM)” value [4] was 3.8±0.5 nm. The “nanofiber length (AFM)” value [5] was “up to 0.5 μm”, the “nanofiber thickness/diameter (AFM)” value [5] was 1.2±0.2 nm and 1.2 nm and the hydrogel formation ([6]; 4sbG series peptides) was “form hydrogels”. For the same molecule, the “G′ (storage modulus)” value ([6]; hydrogel at 1% concentration) was 0.5 kPa and the “G″ (loss modulus)” value ([6]; hydrogel at 1% concentration) was 0.05 kPa.

With “POGPOGPOGPKGPKGPKGPOGPOGDOGDOGDO (P[Hyp]GP[Hyp]GP[Hyp]GPKGPKGPKGP[Hyp]GP[Hyp]GD[Hyp]GD[Hyp]GD[Hyp]) [Peptide 3sb-OKD]” the “Tm (° C.)” value [1] was 20 °C.

With “PKGPKGPKGPOGPOGDOGDOGDOGPOGPOGPOG (PKGPKGPKGP[Hyp]GP[Hyp]GD[Hyp]GD[Hyp]GD[Hyp]GP[Hyp]GP[Hyp]GP[Hyp]G) [Peptide 3sbG-KDO]” the “Tm (° C.)” value [1] was 26 °C.

In the case of “POGPOGPOGPKGPKGPKGPKGHcyOGPOGDOGDOGDOGDOGPOG (PXGPXGPXGPKGPKGPKGPKGXXGPXGDXGDXGDXGDXGPXG; homocysteine, hydroxyproline residues; MOD_RES (2)..(2) 4Hyp; MOD_RES (5)..(5) 4Hyp; MOD_RES (8)..(8) 4Hyp; MOD_RES (22)..(22) Homocysteine; MOD_RES (23)..(23) 4Hyp; MOD_RES (26)..(26) 4Hyp; MOD_RES (29)..(29) 4Hyp; MOD_RES (32)..(32) 4Hyp; MOD_RES (35)..(35) 4Hyp; MOD_RES (38)..(38) 4Hyp; MOD_RES (41)..(41) 4Hyp) [OKD2-h22]”, the “Tm (° C.)” value [1] is reported as 50 °C.

With “PKGPKGPKGPOGPOGDOGDOGDOGPOGPOGPO (PKGPKGPKGP[Hyp]GP[Hyp]GD[Hyp]GD[Hyp]GD[Hyp]GP[Hyp]GP[Hyp]GP[Hyp]) [Peptide 3sb-KDO]” the “Tm (° C.)” value [1] was 13 °C.

With “POGPOGPOGPOGPKGPKGPKGPKGPOGPOGDOGDOGDOGDO (P[Hyp]GP[Hyp]GP[Hyp]GP[Hyp]GPKGPKGPKGPKGP[Hyp]GP[Hyp]GD[Hyp]GD[Hyp]GD[Hyp]GD[Hyp]) [Peptide 4sb-OKD]” the “Tm (° C.)” value [1] was 36 °C.

B1: POGPOGPO…cyOGPOGDOGDOGDOGDOGPOG / POGPOGPCysGPKGPKGPKGPKGPOGPOGDOGDOGDOGDOGPOG (peptide)
chain 1: PXGPXGPXGPKGPKGPKGPKGXXGPXGDXGDXGDXGDXGPXG
chain 2: B1 chain 1 with X8C, X22P
modifications: not fully specified; homocysteine-cysteine crosslinked heterodimer; MOD_RES (2)..(2) 4Hyp; MOD_RES (5)..(5) 4Hyp; MOD_RES (8)..(8) 4Hyp; MOD_RES (22)..(22) Homocysteine; MOD_RES (23)..(23) 4Hyp; MOD_RES (26)..(26) 4Hyp; MOD_RES (29)..(29) 4Hyp; MOD_RES (32)..(32) 4Hyp; MOD_RES (35)..(35) 4Hyp; MOD_RES (38)..(38) 4Hyp; MOD_RES (41)..(41) 4Hyp
For B1, the “Tm (° C.)” value [1] was 60 °C and the “Feature dimensions (nm), nanofiber diameter by TEM” value [3] was 2.4±0.4 nm.

Source: US12162924B2, “Method for the design of fibrillar collagen-mimetic peptide self-assemblies” (WISCONSIN ALUMNI RESEARCH FOUNDATION, priority 2016, dated 2024)
